According to patent EP4660202A1:

Assays:
huTregL1-his (human) [1] = target: T1, huTregL1-his (human) (UniProt Q96JA1); test: cross-linking MS (DSBU), sequence L88-K92 of huTregL1-his, chymotrypsin or trypsin
T1 sequence: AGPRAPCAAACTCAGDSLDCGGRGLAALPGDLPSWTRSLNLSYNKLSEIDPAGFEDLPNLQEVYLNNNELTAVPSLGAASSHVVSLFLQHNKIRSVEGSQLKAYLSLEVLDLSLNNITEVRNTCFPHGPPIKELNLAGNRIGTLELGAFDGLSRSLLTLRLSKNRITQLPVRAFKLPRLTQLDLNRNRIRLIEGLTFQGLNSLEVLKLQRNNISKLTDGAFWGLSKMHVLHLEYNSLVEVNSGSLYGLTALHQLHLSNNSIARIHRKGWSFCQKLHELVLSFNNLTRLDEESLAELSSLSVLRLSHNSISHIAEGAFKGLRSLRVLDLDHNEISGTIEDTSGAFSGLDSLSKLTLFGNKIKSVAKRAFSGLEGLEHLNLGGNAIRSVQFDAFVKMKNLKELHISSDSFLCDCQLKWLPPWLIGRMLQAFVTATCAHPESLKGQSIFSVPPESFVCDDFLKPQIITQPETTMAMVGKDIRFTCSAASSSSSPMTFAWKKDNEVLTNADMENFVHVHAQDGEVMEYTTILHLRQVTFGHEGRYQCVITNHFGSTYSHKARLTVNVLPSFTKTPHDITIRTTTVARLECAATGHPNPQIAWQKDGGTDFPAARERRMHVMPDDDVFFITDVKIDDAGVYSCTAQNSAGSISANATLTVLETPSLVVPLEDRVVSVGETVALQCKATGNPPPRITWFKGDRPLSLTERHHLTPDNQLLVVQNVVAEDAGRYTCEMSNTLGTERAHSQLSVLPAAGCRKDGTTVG

huTregL1-his (human) [2] = target: T1, huTregL1-his (human); test: covalent labelling MS (DEPC), sequence D111-L134 of huTregL1-his, chymotrypsin-treated group, antigen alone against antigen+antibody
huTregL1-his (human) [3] = target: T1, huTregL1-his (human); test: cross-linking MS (DSBU), sequence N211-W222 of huTregL1-his, chymotrypsin or trypsin
huTregL1-his (human) [4] = target: T1, huTregL1-his (human); test: covalent labelling MS (DEPC), sequence E62-L101 of huTregL1-his, antigen alone against antigen+antibody
huTregL1-his (human) [5] = target: T1, huTregL1-his (human); test: cross-linking MS (DSBU), sequence S90-L101 of huTregL1-his, chymotrypsin or trypsin
huTregL1-his (human) [6] = target: T1, huTregL1-his (human); test: covalent labelling MS (DEPC), sequence Q542-Y553 of huTregL1-his, chymotrypsin-treated group, antigen alone against antigen+antibody
huTregL1-his (human) [7] = target: T1, huTregL1-his (human); test: cross-linking MS (DSBU), sequence S362-K365 of huTregL1-his, trypsin-treated group

T% (peptides of the same sequence detected in the test sample compared to the control) (huTregL1-his (human) [1]): < 2%
labeling decrease (%) (huTregL1-his (human) [2]): 15.3%
T% (peptides of the same sequence detected in the test sample compared to the control) (huTregL1-his (human) [3]): < 2%
labeling decrease (%) (huTregL1-his (human) [4]): 13.2%
T% (peptides of the same sequence detected in the test sample compared to the control) (huTregL1-his (human) [5]): < 2%
labeling decrease (%) (huTregL1-his (human) [6]): 14.7%
T% (peptides of the same sequence detected in the test sample compared to the control) (huTregL1-his (human) [7]): 0%
B1: GTC210-03 clone (antibody, mouse IgG2a, V domains shown)
VH: EVQLLESGGGLVQPGGSLRLSCAASGFTFSSYDMSWVRQAPGKGLEWVSGISPDGSNIYYADSVKGRFTISRDNSKNTLYLQMNSLRAEDTAVYYCAKVGLRCRYEACSYAYGMDVWGQGTLVTVSS
VL: QSVLTQPPSASGTPGQRVTISCSGSSSNIGSNYVSWYQQLPGTAPKLLIYSDSHRPSGVPDRFSGSKSGTSASLAISGLRSEDEADYYCATWDSSLNGYVFGGGTKLTVLR
